In publication PMC11514447, “Eukaryotic initiation factor 4B is a multi-functional RNA binding protein that regulates histone mRNAs”:

B1: His1-FL (structured_RNA)
RNA: UCCUUUGGCCAACUGCUUAGAAGCCCAACACAACCCAAAGGCUCUUUUCAGAGCCACCCA

Target: eIF4B (UniProt P23588 1-611)
Test: fluorescence polarization; 2 mM ATP, 2 mM Mg2+; 20 mM HEPES/KOH pH 7.5, 100 mM KCl, 1 mM TCEP, 2 mM ATP, 2 mM MgCl2, 40 nM FAM-RNA, 60 min, 25 C; Kd values only in figures (one-site fit, n=3)
Conditions: protein: recombinant

eIF4B, sequence (P23588 whole entry): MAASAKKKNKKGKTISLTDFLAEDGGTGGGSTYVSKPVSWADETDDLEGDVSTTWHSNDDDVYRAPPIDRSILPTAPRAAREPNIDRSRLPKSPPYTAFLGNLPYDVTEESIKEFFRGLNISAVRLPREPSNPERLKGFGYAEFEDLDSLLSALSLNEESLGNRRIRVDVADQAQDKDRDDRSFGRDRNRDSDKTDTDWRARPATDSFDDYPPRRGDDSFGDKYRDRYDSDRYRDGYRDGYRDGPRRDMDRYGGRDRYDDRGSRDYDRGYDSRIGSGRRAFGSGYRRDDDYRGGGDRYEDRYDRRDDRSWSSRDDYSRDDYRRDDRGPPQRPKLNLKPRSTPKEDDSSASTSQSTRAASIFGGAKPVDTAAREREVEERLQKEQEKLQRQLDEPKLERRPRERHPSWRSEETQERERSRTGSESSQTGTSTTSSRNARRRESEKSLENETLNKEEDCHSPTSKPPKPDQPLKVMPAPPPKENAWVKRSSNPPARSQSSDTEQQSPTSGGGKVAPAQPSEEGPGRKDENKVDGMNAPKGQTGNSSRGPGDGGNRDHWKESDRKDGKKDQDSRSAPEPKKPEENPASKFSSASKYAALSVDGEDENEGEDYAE

Binder	binding result (3' hairpin, 6-bp stem, 4-nt loop)	binding result
B1	binds	–
GCUGCACUCUUAUUUUCAUUUUCAACCAAA (ssRNA) [His4-ssRNA]	–	binds
UCCUUUGGCCAACUGCUUAGAAGCCCAACACAACCCAAA (ssRNA) [His1-ssRNA]	–	binds
GGCUGGCGUGAGGGUCUCCCUUGAUCUGAGAAUG (ssRNA) [CDK4-5'UTR]	–	binds
